In article PMC8830441, “Interaction of TLK1 and AKTIP as a Potential Regulator of AKT Activation in Castration-Resistant Prostate Cancer Progression” (Pathophysiology, 2021):

Biological target: T1, Full-length, wild-type recombinant His-tagged TLK1B (human, UniProt Q9UKI8-3 1-549)
T1 construct: wild-type, full-length TLK1B; also called His-TLK1B; recombinant TLK1; source: bacterial expression plasmid, recombinant, purified according to the published literature
T1 sequence (looked up): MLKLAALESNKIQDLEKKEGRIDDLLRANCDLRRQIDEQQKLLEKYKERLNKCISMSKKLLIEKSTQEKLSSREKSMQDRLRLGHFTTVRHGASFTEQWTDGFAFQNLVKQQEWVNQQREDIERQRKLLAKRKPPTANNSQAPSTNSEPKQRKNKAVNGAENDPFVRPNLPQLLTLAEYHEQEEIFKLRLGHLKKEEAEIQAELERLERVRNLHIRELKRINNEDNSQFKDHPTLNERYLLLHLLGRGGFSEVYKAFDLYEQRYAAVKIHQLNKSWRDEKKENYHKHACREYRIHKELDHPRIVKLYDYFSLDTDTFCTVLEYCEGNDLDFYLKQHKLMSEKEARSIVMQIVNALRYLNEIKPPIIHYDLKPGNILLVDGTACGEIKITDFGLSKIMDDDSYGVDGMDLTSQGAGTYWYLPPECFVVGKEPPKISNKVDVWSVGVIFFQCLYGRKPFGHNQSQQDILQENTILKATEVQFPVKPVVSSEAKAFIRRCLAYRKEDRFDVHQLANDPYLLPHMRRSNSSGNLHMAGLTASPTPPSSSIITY
Assay: pull-down; His-TLK1B and GST-AKTIP, 1 µg of each, incubated on ice 30 min, isolated on Ni-NTA agarose beads, washed with cell lysis buffer, WB for AKTIP
Settings: both partners purified

- binding result: binds
B1: wild-type full-length human GST-AKTIP (natural protein, UniProt Q9H8T0 1-292, looked up)
chain: MNPFWSMSTSSVRKRSEGEEKTLTGDVKTSPPRTAPKKQLPSIPKNALPITKPTSPAPAAQSTNGTHASYGPFYLEYSLLAEFTLVVKQKLPGVYVQPSYRSALMWFGVIFIRHGLYQDGVFKFTVYIPDNYPDGDCPRLVFDIPVFHPLVDPTSGELDVKRAFAKWRRNHNHIWQVLMYARRVFYKIDTASPLNPEAAVLYEKDIQLFKSKVVDSVKVCTARLFDQPKIEDPYAISFSPWNPSVHDEAREKMLTQKKPEEQHNKSVHVAGLSWVKPGSVQPFSKEEKTVAT
notes: also called GST-tagged AKTIP; source: bacterial expression plasmid, recombinant, purified from bacteria according to the published literature
